Reference: US20250011397A1 (HOSPITAL FOR SICK CHILDREN, published 2025)
Numbering of substitutions follows the chain as printed. Values joined by “and” are separate entries in the source; they are usually repeats but may differ in a detail not shown here. Equal values may be shown once.

B1: MB 158 (other)
heavy: QVQLVQSGAEVKKPGASVKVSCKASGYTFTGYYMHWVRQAPGQGLEWMGWINPLNGGTNFAPKFQGRVTMTRDTSTSTVYMELSSLRSEDTAVYYCARDPGGSYSNDAFDIWGQGTLVTVSSASTKGPSVFPLAPSSKSTSGGTAALGCLVKDYFPEPVTVSWNSGALTSGVHTFPAVLQSSGLYSLSSVVTVPSSSLGTQTYICNVNHKPSNTKVDKKVEPKSC
light: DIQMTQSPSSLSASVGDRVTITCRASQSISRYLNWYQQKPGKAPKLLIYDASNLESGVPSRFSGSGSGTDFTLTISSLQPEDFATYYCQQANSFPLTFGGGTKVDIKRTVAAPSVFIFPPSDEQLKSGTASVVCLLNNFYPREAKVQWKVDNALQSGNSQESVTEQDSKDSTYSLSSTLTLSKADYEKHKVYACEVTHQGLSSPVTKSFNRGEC
B2: mAb 128 (antibody, V domains shown)
VH: QVQLVQSGAEVKKPGASVKVSCKASGYTFTHYYMHWVRQAPGQGLEWMGIINPSSSSASYSQKFQGRVTMTRDTSTSTVYMELSSLRSEDTAVYYCARDGRYGSGSYPFDYWGQGTLVTVSS
VL: DIQMTQSPSSLSASVGDRVTITCRASQNISRYLNWYQQKPGKAPKLLIYDASNLETGVPSRFSGSGSGTDFTLTISSLQPEDFATYYCQQANGFPPTFGQGTKLEIKR
B3: MB 192 (other)
heavy: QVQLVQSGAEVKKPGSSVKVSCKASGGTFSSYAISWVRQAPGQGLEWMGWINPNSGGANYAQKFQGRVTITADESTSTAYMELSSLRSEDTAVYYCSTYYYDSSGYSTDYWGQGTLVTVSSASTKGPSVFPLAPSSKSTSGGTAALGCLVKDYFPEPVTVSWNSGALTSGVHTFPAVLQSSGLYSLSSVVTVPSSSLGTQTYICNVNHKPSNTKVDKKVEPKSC
light: DIVMTQSPLSLPVTPGEPASISCRSSQSLLHSNGYNYLDWYLQKPGQSPQLLIYAASSLQSGVPDRFSGSGSGTDFTLKISRVEAEDVGVYYCMQALQTPYTFGQGTKLEIKRTVAAPSVFIFPPSDEQLKSGTASVVCLLNNFYPREAKVQWKVDNALQSGNSQESVTEQDSKDSTYSLSSTLTLSKADYEKHKVYACEVTHQGLSSPVTKSFNRGEC
B4: MB 180 (other)
heavy: QVQLVQSGAEVKKPGSSVKVSCKASGYTFTSYAMHWVRQAPGQGLEWMGRISPRSGGTKYAQRFQGRVTITADESTSTAYMELSSLRSEDTAVYYCAREAVAGTHPQAGDFDLWGRGTLVTVSSASTKGPSVFPLAPSSKSTSGGTAALGCLVKDYFPEPVTVSWNSGALTSGVHTFPAVLQSSGLYSLSSVVTVPSSSLGTQTYICNVNHKPSNTKVDKKVEPKSC
light: B3 light with M94Q, A96Y, L97Y, Q98S, T99S
B5: MB 120 (other)
heavy: QVQLVQSGAEVKKPGASVKVSCKASGYTFTSYDINWVRQAPGQGLEWMGMIDPSGGSTSYAQKFQGRVTMTRDTSTSTVYMELSSLRSEDTAVYYCAKDFGGGTRYDYWYFDLWGRGTLVTVSSASTKGPSVFPLAPSSKSTSGGTAALGCLVKDYFPEPVTVSWNSGALTSGVHTFPAVLQSSGLYSLSSVVTVPSSSLGTQTYICNVNHKPSNTKVDKKVEPKSC
light: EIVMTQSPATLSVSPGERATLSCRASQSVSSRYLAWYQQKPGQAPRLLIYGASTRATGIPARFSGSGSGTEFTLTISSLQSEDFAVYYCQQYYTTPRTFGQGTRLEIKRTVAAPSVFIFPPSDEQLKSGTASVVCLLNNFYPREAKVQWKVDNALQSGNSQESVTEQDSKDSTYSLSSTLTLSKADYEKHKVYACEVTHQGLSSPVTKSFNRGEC
B6: MB 178 (other)
heavy: QVQLVQSGAEVKKPGASVKVSCKASGYTFTDYHMHWVRQAPGQGLEWMGWINPNSGGTNYAQKFQGRVTMTRDTSTSTVYMELSSLRSEDTAVYYCARDISSWYEITKFDPWGQGTLVTVSSASTKGPSVFPLAPSSKSTSGGTAALGCLVKDYFPEPVTVSWNSGALTSGVHTFPAVLQSSGLYSLSSVVTVPSSSLGTQTYICNVNHKPSNTKVDKKVEPKSC
light: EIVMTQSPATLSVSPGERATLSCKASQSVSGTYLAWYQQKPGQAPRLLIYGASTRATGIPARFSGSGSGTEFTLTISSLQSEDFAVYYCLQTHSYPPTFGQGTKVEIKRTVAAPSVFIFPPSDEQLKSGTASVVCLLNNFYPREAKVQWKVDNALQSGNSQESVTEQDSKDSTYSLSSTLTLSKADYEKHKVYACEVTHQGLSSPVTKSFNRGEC
B7: MB 254 (other)
heavy: EVQLLESGGGLVQPGGSLRLSCAASGFTFSSSAMHWVRQAPGKGLEWVSAIGTGGDTYYADSVKGRFTISRDNSKNTLYLQMNSLRAEDTAVYYCAREGDGYNFYFDYWGQGTLVTVSSASTKGPSVFPLAPSSKSTSGGTAALGCLVKDYFPEPVTVSWNSGALTSGVHTFPAVLQSSGLYSLSSVVTVPSSSLGTQTYICNVNHKPSNTKVDKKVEPKSC
light: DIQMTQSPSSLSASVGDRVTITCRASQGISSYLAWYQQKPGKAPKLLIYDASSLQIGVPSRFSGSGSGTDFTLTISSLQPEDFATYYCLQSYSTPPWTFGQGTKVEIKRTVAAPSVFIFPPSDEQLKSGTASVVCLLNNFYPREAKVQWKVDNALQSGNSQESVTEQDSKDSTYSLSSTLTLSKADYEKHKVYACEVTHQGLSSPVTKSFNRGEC
B8: MB 128 (other)
heavy: QVQLVQSGAEVKKPGASVKVSCKASGYTFTHYYMHWVRQAPGQGLEWMGIINPSSSSASYSQKFQGRVTMTRDTSTSTVYMELSSLRSEDTAVYYCARDGRYGSGSYPFDYWGQGTLVTVSSASTKGPSVFPLAPSSKSTSGGTAALGCLVKDYFPEPVTVSWNSGALTSGVHTFPAVLQSSGLYSLSSVVTVPSSSLGTQTYICNVNHKPSNTKVDKKVEPKSC
light: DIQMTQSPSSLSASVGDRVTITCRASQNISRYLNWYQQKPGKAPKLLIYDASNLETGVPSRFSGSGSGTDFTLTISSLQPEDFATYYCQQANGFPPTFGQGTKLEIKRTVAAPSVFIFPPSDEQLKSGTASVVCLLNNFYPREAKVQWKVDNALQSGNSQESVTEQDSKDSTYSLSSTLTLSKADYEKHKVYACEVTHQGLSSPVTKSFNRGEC
B9: MB 349 (other)
heavy: EVQLLESGGGLVQPGGSLRLSCAASGFTFSNYGMHWVRQAPGKGLEWVSGISSAGSITNYADSVKGRFTISRDNSKNTLYLQMNSLRAEDTAVYYCAGNHAGTTVTSEYFQHWGQGTLVTVSSASTKGPSVFPLAPSSKSTSGGTAALGCLVKDYFPEPVTVSWNSGALTSGVHTFPAVLQSSGLYSLSSVVTVPSSSLGTQTYICNVNHKPSNTKVDKKVEPKSC
light: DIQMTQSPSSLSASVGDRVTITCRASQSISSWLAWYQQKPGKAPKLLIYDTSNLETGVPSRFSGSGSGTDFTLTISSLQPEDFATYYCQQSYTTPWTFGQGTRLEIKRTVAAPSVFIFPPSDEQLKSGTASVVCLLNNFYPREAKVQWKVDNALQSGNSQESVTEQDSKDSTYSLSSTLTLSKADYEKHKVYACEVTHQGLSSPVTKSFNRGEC
B10: MB 56 (other)
heavy: QVQLVQSGAEVKKPGASVKVSCKASGYTFTSYGISWVRQAPGQGLEWMGWISAYNGNTNYAQKLQGRVTMTRDTSTSTVYMELSSLRSEDTAVYYCARDIGPIDYWGQGTLVTVSSASTKGPSVFPLAPSSKSTSGGTAALGCLVKDYFPEPVTVSWNSGALTSGVHTFPAVLQSSGLYSLSSVVTVPSSSLGTQTYICNVNHKPSNTKVDKKVEPKSC
light: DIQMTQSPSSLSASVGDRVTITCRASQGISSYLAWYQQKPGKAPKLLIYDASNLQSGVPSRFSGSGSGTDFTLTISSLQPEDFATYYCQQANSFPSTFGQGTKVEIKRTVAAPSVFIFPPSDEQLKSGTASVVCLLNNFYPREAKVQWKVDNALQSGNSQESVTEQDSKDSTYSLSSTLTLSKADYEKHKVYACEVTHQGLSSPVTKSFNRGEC
B11: MB 160 (other)
heavy: QVQLVQSGAEVKKPGASVKVSCKASGYTFTGHDMHWVRQAPGQGLEWMGIINPSGGSTSYAQKFQGRVTMTRDTSTSTVYMELSSLRSEDTAVYYCARANSLRYYYGMDVWGQGTMVTVSSASTKGPSVFPLAPSSKSTSGGTAALGCLVKDYFPEPVTVSWNSGALTSGVHTFPAVLQSSGLYSLSSVVTVPSSSLGTQTYICNVNHKPSNTKVDKKVEPKSC
light: DIQMTQSPSSLSASVGDRVTITCRASQSVSSWLAWYQQKPGKAPKLLIYAASSLQSGVPSRFSGSGSGTDFTLTISSLQPEDFATYYCQQGYTTPYTFGQGTKLEIKRTVAAPSVFIFPPSDEQLKSGTASVVCLLNNFYPREAKVQWKVDNALQSGNSQESVTEQDSKDSTYSLSSTLTLSKADYEKHKVYACEVTHQGLSSPVTKSFNRGEC
B12: MB 108 (other)
heavy: QVQLVQSGAEVKKPGASVKVSCKASGYIFSRYAIHWVRQAPGQGLEWMGWMNPISGNTDYAPNFQGRVTMTRDTSTSTVYMELSSLRSEDTAVYYCAKDGSQLAYLVEYFQHWGQGTLVTVSSASTKGPSVFPLAPSSKSTSGGTAALGCLVKDYFPEPVTVSWNSGALTSGVHTFPAVLQSSGLYSLSSVVTVPSSSLGTQTYICNVNHKPSNTKVDKKVEPKSC
light: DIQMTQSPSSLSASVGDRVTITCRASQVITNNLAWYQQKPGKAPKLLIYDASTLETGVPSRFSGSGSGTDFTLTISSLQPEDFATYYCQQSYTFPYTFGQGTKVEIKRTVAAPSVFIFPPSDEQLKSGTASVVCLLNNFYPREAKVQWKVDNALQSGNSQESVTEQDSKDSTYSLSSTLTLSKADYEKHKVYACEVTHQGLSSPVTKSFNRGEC

Assays:
[1] = molecular target: T1, SARS-CoV-2 Spike on HIV-based pseudotyped virus (Spike plasmid BEI NR52310) (SARS-CoV-2, UniProt P0DTC2 14-1273); assay: cell-based or functional assay
[2] = molecular target: T1, SARS-CoV-2 Spike on HIV-based …; assay: cell-based or functional assay; remark: listed apart in the source

Binder	Median IC50 (PsV neutralization) [1]	IC50 SARS-CoV2 PsV (µg/mL), MB [2] [µg/mL]	IC50 SARS-CoV2 PsV (µg/mL), IgG [2] [µg/mL]
B1	0.1 µg/mL and 43 pM	0.1	
B2	> 50 µg/mL and > 333 nM		> 50
B3	0.79 µg/mL and 343 pM	0.79	
B4	0.89 µg/mL and 387 pM	0.89	
B5	7.2 µg/mL and 3.1 nM	7.2	
B6	1.7 µg/mL and 0.74 nM	1.7	
B7	9.3 µg/mL and 4 nM	9.3	
B8	1.5 nM and 3.5 µg/mL	3.5	
B9	> 50 µg/mL and > 0.33 µM	> 50	
B10	> 50 µg/mL and > 0.33 µM	> 50	
B11	0.22 µg/mL and 96 pM	0.22	
B12	0.37 µg/mL and 161 pM	0.37	
